Data from US20180305702A1.

What was measured:
[1] = biological target: H-2K^b on DC2.4 cells not presenting SIINFEKL (cells infected with a non-SIINFEKL-expressing Lm strain; K^b-SIINFEKL negative populations) (murine); test: flow cytometry, K^b-SIINFEKL negative populations of infected DC2.4 cells
[2] = biological target: H-2K^b on DC2.4 cells not presenting SIINFEKL (cells infected with a non-SIINFEKL-expressing Lm strain; K^b-SIINFEKL negative populations) (murine); test: flow cytometry, DC2.4 cells infected with a non-SIINFEKL-expressing Lm strain at MOI 20
[3] = biological target: cell surface MHC class I K^b molecules presenting the OVA257-264 SIINFEKL peptide (murine); test: flow cytometry, DC2.4 cells infected with ADXS31-2142 at MOI 20, stained five hours post-infection
[4] = biological target: cell surface MHC class I K^b molecules presenting the OVA257-264 SIINFEKL peptide (murine); test: flow cytometry, K^b-SIINFEKL positive population of DC2.4 cells infected with Lm expressing PSA-PSMA-SIINFEKL
[5] = biological target: cell surface MHC class I K^b molecules presenting the OVA257-264 SIINFEKL peptide (murine); test: flow cytometry, K^b-SIINFEKL positive population of DC2.4 cells infected with Lm expressing PSA-Survivin-SIINFEKL
[6] = biological target: cell surface MHC class I K^b molecules presenting the OVA257-264 SIINFEKL peptide (murine); test: flow cytometry, K^b-SIINFEKL positive population of DC2.4 cells infected with the SIINFEKL minigene Lm (positive control)

- Mean fluorescence intensity (MFI) [1]: 300 MFI
- percentage of Alexa647+ DC2.4 cells [2]: 0.37%
- percentage of Alexa647+ DC2.4 cells [3]: 14.6%
- Mean fluorescence intensity (MFI) [4]: 2040 MFI
- Mean fluorescence intensity (MFI) [6]: 14900 MFI
Substance: Alexa Fluor 647 conjugated 25D-1.16 antibody
- Mean fluorescence intensity (MFI) [5]: 4780 MFI
